# Measurements published in PMC8259991, “Transgenerational inheritance of centromere identity requires the CENP-A N-terminal tail in the C. elegans maternal germ line” (PLoS Biology, 2021).
# B1: CENP-A N-terminal tail (aa 1-179) fused to GST (domain or fragment, C. elegans, UniProt P34470 1-179, looked up)
# chain: MADDTPIIEEIAEQNESVTRIMQRLKHDMQRVTSVPGFNTSAAGVNDLIDILNQYKKELEDDAANDYTEAHIHKIRLVTGKRNQYVLKLKQAEDEYHARKEQARRRASSMDFTVGRNSTNLVDYSHGRHHMPSYRRHDSSDEENYSMDGTNGDGNRAGPSNPDRGNRTGPSSSDRVRMR
# notes: CENP-A homolog HCP-3, C. elegans, residues 1-179 (N-terminal tail); The His9-MBP tag was cut off with TEV protease after the two proteins had been mixed and before the pull-down on glutathione beads; also called His9-MBP-TEV-CENP-A^1-179-GST; GST::CENP-A N-terminal tail; source: E. coli BL21-Star, purified (Ni-charged chelating HiTrap column, desalting); not shown: His9-MBP, N-terminal, cleaved; …
# Target: T1, KNL-2 central region (aa 269-470), recombinant (C. elegans, UniProt O44548 269-470)
# T1 construct: The His9-MBP tag was cut off with TEV protease after mixing and before the pull-down; also called KNL-2 central fragment; source: E. coli BL21-Star, purified (MBP FF crude column, desalting); not shown: His9-MBP, N-terminal, cleaved
# T1 sequence (looked up): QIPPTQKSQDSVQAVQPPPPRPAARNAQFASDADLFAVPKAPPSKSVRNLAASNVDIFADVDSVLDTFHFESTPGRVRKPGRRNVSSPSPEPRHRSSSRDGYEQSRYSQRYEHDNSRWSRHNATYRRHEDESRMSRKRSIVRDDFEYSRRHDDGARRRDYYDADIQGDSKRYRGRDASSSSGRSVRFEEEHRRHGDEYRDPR
# Test: pull-down; recombinant proteins mixed in equimolar amounts, 1 h at RT, TEV digestion 30 min at RT, glutathione magnetic agarose beads 1 h at RT; SDS-PAGE with Coomassie stain
# Conditions: both partners purified
binder,measurement,value
B1,binding result,binds
